The values that follow come from patent US11046782B2, “Methods for treatment and diagnosis of cancer by targeting glycoprotein A repetitions predominant (GARP) and for providing effective immunotherapy alone or in combination” (MUSC FOUNDATION FOR RESEARCH DEVELOPMENT, priority 2016, dated 2021).

One test concerns B16-F1 melanomas. In words: B16-F1 melanoma model, adoptive T cell therapy with anti-platelet agents. Format: in vivo, C57BL/6 mice. To be noted: no adoptive T cells; Cy on day 7. From the text: To establish the clinical relevance of the suppressive effect of platelets on anti-tumor immunity, the impact of platelets on immunotherapy was addressed pharmacologically. B16-F1 melanomas were established in C57BL/6 mice after subcutaneous injection on day 0, followed by lymphodepletion with Cy on day 7, and infusion of ex vivo primed Pmel cells on day 8, along with anti-platelet (AP) agents: aspirin and clopidogrel. Aspirin and clopidogrel inhibit platelet activation by blocking cycloxyenase and ADP receptors, respectively.
B16-F1 tumor model and adoptive T cell therapy (ACT). […] (B16 EV, and B16 GARP-Fc; n=5-7 each group) of 6-8-week old female C57BL/6J mice were inoculated s.q. in the right flank using 2.5×10^5 cells and, when specified, treated with one intra-peritoneal injection of CY (4 mg/mouse) a day prior to adoptive T cell therapy. […] Primary tumor growth was monitored 3 times per week with vernier calipers. Peripheral adoptively transferred Pmel cells were monitored at 2, 3, 4, and 5 weeks after ACT. Ex-vivo Pmel IFN-γ production was assess stimulating Pmel cells for 3 h in presence of hgp100 and brefeldin A (BFA) at 37° C. and analyzed by flow cytometry.

The test system of another test is active TGF-β1. In words: Active TGF-β ELISA of purified recombinant GARP-Fc. In kind it is binding. The following applies: GARP-Fc purified from CHO conditioned medium. As for the experimental part: Purification of GARP-Fc. For purification of GARP-Fc protein GARP-Fc, MigR1 vector was transfected into Chinese hamster ovary (CHO) cells using Lipofectamine 2000 (Invitrogen) according to the manufacturer's instructions. Stably transfected clones were selected by blasticidin (5 μg/ml) and protein expression was quantified by SDS-PAGE and Western blot under reducing conditions using anti-mouse GARP and anti-mouse Fc antibody. Recombinant GARP-Fc was purified from cell culture supernatants by protein A affinity chromatography (GE Health).
TGF-β1, GARP, and GARP-TGF-β1 analysis. Active TGF-β1, total TGF-β1, and soluble GARP were measured in human and mouse serum using TGF-β1 and GARP ELISA kits (BioLegend, San Diego, Calif.) according to the manufacturer's protocols. To measure GARP-TGF-β1 complex by ELISA, 96-well plates were coated with TGF-β1 capture antibody according to the manufacturer's instructions (BioLegend, San Diego, Calif.). Samples were incubated for 2 h at room temperature followed by the incubation with the anti-hGARP detection antibody developed in our lab for another 2 h.
(In general: ELISA stands for enzyme-linked immunosorbent assay.)

A further test deals with NMuMG cells. In words: NMuMG cells stimulated with soluble GARP-Fc (morphology, vimentin Western blot). Format: cell-based, murine. On the procedure:
Protein extraction, immunoprecipitation, and Western blot analysis. Cells were harvested by trypsin-EDTA when necessary, washed in PBS, and lysed on ice in radio-immunoprecipitation assay (RIPA) lysis buffer in the presence of a protease inhibitor cocktail (Sigma-Aldrich). Nuclear-free protein lysate was quantified by Bradford assay (Bio-Rad), and an equal amount of lysate was analysed by SDS-PAGE and Western blot under reducing conditions using anti-mouse GARP (AF6229; R&D system), anti-mouse Vimentin (D21H3; Cell signaling), anti-mouse E-Cadherin (24E10; Cell Signaling) and anti-mouse p-Smad-2/3 (EP823Y; Abcam).
Cell proliferation and in vitro wound healing assay. NMuMG cells (4×10^5) were starved overnight in serum free DMEM (Corning cellgro). Starved cells were cultured at the indicated times with GARP-Fc in 2% FBS DMEM. […] Proliferation was determined with 3-[4,5 dimethylthiazol-2-yl]-2,5-diphenyltetrazolium bromide (MTT), which was added to the cells at the indicated times and incubated for an additional 3 h at 37° C. […] Absorbance at 570 nm was then measured using a plate reader. The cell migration was measured by the wound-healing assay: at 100% confluence, two parallel wounds were made using a 1 ml pipette tip. Migration was assessed after 24, 48 and 72 hours and quantification of wound closure was measured using the ImageJ software (NIH).
For orientation: Immunoblotting shows a protein as a band on a membrane.

The target of a further test is T1, mouse GARP (Mus musculus, UniProt G3XA59).
T1 sequence (G3XA59 18-663): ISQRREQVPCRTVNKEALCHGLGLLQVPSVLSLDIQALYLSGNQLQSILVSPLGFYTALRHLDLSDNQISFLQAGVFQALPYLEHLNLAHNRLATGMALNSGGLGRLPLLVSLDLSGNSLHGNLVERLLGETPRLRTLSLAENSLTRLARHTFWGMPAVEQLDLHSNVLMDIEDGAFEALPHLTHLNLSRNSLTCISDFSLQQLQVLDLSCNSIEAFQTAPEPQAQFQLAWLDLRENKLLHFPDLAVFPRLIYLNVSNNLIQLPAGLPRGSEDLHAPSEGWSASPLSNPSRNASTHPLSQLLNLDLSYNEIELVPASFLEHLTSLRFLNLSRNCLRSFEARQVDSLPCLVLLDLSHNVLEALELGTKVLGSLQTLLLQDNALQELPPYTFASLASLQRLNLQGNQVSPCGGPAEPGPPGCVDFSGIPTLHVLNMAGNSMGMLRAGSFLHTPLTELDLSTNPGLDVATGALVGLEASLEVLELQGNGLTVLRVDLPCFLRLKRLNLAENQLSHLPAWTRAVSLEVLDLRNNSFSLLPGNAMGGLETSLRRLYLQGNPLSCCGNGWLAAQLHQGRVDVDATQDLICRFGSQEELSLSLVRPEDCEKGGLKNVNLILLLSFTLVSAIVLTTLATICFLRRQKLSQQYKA
In words: Cross-reactivity of anti-GARP mAb clones against mouse GARP. Format: binding.

The target in test [1] is T2, binding of exogenous human LTGFβ-1 (huLTGFβ-1) to surface GARP (Homo sapiens, UniProt Q14392).
T2 construct: expressed in transfected cells; host or cells: murine Pre-B leukemia line 70Z/3 stably transduced with human GARP (MigR1 retroviral vector)
T2 sequence (Q14392 20-662): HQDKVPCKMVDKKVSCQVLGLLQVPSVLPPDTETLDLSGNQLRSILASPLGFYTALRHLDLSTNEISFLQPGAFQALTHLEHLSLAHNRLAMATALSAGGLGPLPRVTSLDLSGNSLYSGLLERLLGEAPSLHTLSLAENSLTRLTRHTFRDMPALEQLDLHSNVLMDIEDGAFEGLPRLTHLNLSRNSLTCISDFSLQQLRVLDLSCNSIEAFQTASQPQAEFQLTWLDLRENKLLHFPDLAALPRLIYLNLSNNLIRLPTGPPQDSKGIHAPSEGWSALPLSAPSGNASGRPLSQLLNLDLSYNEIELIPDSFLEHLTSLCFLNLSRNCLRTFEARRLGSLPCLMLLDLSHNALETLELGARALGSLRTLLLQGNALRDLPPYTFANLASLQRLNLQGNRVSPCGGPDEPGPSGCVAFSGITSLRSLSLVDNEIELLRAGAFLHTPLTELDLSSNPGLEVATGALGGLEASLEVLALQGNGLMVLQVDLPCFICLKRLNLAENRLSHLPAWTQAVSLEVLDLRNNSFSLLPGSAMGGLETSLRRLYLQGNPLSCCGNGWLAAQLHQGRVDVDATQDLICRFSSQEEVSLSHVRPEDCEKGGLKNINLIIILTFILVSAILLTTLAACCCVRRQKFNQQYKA
In words: Blocking of exogenous huLTGF-β binding to surface GARP on Pre-B-hGARP cells. The following applies: staining for cell surface huLTGF-β. In kind it is cell-based. On the procedure:
FIGS. 7A-7E. GARP-specific antibodies block binding of exogenous LTGF-β to GARP and have therapeutic values against a preclinical model of breast cancer. (7A) Surface staining of Pre-B cells stably expressing human GARP (Pre-B-hGARP) by various GARP antibodies. Grey histogram represents staining with isotype control antibody. (7B) Pre-B-hGARP cells were incubated without or with human LTGF-β (huLTGF-β), in the presence of various GARP antibodies or Isotype control antibody, followed by staining for cell surface huLTGF-β. (7C) BALB/c mice were injected with 4T1-huGARP mammary tumors orthotopically, followed by indicated treatment regimen. Data shown are the comparisons of primary tumor weight isolated at 35 days (left panel, combined treatment group) or 30 days (right panel, antibody treatment alone) after inoculation. (7D) Impact of anti-GARP antibody treatment alone (left panel) or in combination with CY on the number of metastatic tumor nodules in the lungs. (7E) Percentage of splenic Tregs and MDSCs in the spleen of mice treated with isotype control antibody or anti-GARP antibody (4D3). Two sample t-tests were used to compare group differences in all panels. *P<0.05. ***P<0.001.

The test system of test [2] is human GARP-expressing 4T1 tumor cells. In words: 4T1-huGARP orthotopic mammary tumor model, GARP antibody therapy. Format: in vivo, BALB/c mice. The following applies: for primary tumor growth: antibody 0.1 mg/mouse i.p. three times per week, with or without a single dose of CY, vs isotype control. As for the experimental part:
4T1 Tumor model and GARP antibody therapy. Female BALB/c mice, 6-8-week old were inoculated in the fourth mammary fat pad subcutaneously (s.q.) with 5×10^5 cells (4T1 EV, 4T1 GARP, or 4T1 GARP-Fc). Tumor growth was monitored three times per week with a digital vernier caliper and tumor volume was calculated using the following formula: tumor volume (mm^3)=[(width)^2×length][…]. In GARP antibody therapy experiments, beginning at 3 days post-tumor inoculation, anti-GARP antibody or polyclonal isotype-controlled antibody (0.1 mg/mouse in 0.1 mL PBS; three times per week) were administered intraperitoneally (i.p.) into mice. […] At end-point, mice were sacrificed and the primary tumor, draining LNs, spleen, lungs and liver were isolated. Tumor infiltrated lymphocytes were isolated by Collagenase D (Sigma) digestion followed by Histopaque-1083 (Sigma) mediated density separation.

The mark [3] stands for this setting: spleen, vs isotype control antibody.

Turning to `O=P1(N(CCCl)CCCl)NCCCO1` (stereo not shown) [Cy, cyclophosphamide], the “tumor control without T cell transfer” value in the test with B16-F1 melanomas was “failed to control tumors”.

B1: GARP-Fc: fusion protein consisting of the N-terminal extracellular domain of GARP linked to an Fc domain of IgG (protein)
chain: ISQRREQVPCRTVNKEALCHGLGLLQVPSVLSLDIQALYLSGNQLQSILVSPLGFYTALRHLDLSDNQISFLQAGVFQALPYLEHLNLAHNRLATGMALNSGGLGRLPLLVSLDLSGNSLHGNLVERLLGETPRLRTLSLAENSLTRLARHTFWGMPAVEQLDLHSNVLMDIEDGAFEALPHLTHLNLSRNSLTCISDFSLQQLQVLDLSCNSIEAFQTAPEPQAQFQLAWLDLRENKLLHFPDLAVFPRLIYLNVSNNLIQLPAGLPRGSEDLHAPSEGWSASPLSNPSRNASTHPLSQLLNLDLSYNEIELVPASFLEHLTSLRFLNLSRNCLRSFEARQVDSLPCLVLLDLSHNVLEALELGTKVLGSLQTLLLQDNALQELPPYTFASLASLQRLNLQGNQVSPCGGPAEPGPPGCVDFSGIPTLHVLNMAGNSMGMLRAGSFLHTPLTELDLSTNPGLDVATGALVGLEASLEVLELQGNGLTVLRVDLPCFLRLKRLNLAENQLSHLPAWTRAVSLEVLDLRNNSFSLLPGNAMGGLETSLRRLYLQGNPLSCCGNGWLAAQLHQGRVDVDATQDLICRFGSQEELSLSLVRPEDCEKGGLKNVN
modifications: left off: a dimerising Fc or GST
notes: fusion protein consisting of the N-terminal extracellular domain of GARP linked to an Fc domain of IgG
As to B1, the “association between GARP-Fc and active TGF-β1” value with active TGF-β1 was “direct association”. Besides, the vimentin expression result in the test on NMuMG cells (Western blot, indicated times and increasing doses) is “time- and dose-dependent upregulation”. Also, in the test on NMuMG cells (serum-free medium, within 24 hours), the cell morphology change entry is listed as “spindle-shaped morphology”.

B2: 4D3: anti-GARP monoclonal antibody (IgG1); VH SEQ ID NO: 4, VL SEQ ID NO: 8 (antibody, listed as Homo sapiens, V domains shown)
VH: LDVQLQESGPGLVKPSQSLSLTCTVTGYSITSDYAWNWIRQFPGNKLEWMGYISYSGSTSYTPSLKSRISITRDTSKNHFFLQSNSVTTEDTATYYCAKSGGDYYGSSSYWYFDVWGAGTTVTVSS
VL: DIQMTQSPSSLSVSAGEKVTMSCKSSQSLLNSRSQKNYLAWYQQKPGQPPKLLIYRASTRGSGVPDRFTGSGSGTDFTLTISSVQAEDLAVYYCQNDHSYPFTFGSGTKLEIK
In the case of B2, the “cross-reactivity against mouse GARP” value with mouse GARP was “low level of cross-reactivity”. For the same molecule, the “block of binding of exogenous human LTGFβ-1 to surface GARP” value in test [1] was “only clone able to block”. The primary tumor growth entry in test [2] was “modestly inhibited”. Besides, in test [2] (setting [3]), the “splenic Gr1+CD11b+ myeloid-derived suppressor cells (MDSCs)” value was “significant reduction” and the “splenic Tregs” value was “significant reduction”.

B3: 5C5: second anti-GARP mAb (IgG2a); VH SEQ ID NO: 12, VL SEQ ID NO: 16 (antibody, listed as Homo sapiens, V domains shown)
VH: EVKLVESGGGSVKPGGSLKLSCAASGFTFSNYVMSWVRQTPEKRLEWVATISSGGSYTYYPDSVKGRLTISRDNAKNTLYLQMSSLRSEDTAMYYCARGYDNGDYVMDYWGQGTSVTVSS
VL: DIVLTQSPASLAVSLGQRATISCRASESVDTYGNSFMHWYQQIPGQPPKVLIYRASNLESGIPARFSGSGSRTDFTLTINPVEAGDVATYYCQQTNEHPPTFGGGTKLEIK
B3: the primary tumor growth result in test [2] is recorded as “modestly inhibited”.
